Assay in all cases: ITC; 25 °C; 50 mM Tris pH 7.5, 100 mM NaCl, 1 mM EDTA, 1 mM DTT; 1 mM TBK1 fragment in the syringe, 0.1 mM OPTN or NAP1 fragment in the cell; one-site binding model
(In general: Isothermal titration calorimetry measures the heat released or taken up as one component is titrated into another.)

Assay [1] addresses OPTN L47Q (ITC sample) (human) (UniProt Q96CV9).
The target of assay [2] is OPTN L54Q (ITC sample) (human) (UniProt Q96CV9).
The target in assay [3] is OPTN M44Q (ITC sample) (human) (UniProt Q96CV9).

Broadly, the Kd is the free concentration of one partner at which half of the binding sites on the other are occupied at equilibrium, for simple one-to-one binding.

B1: TBK1 CTD (residues 677–729) (domain or fragment)
chain: YPSSNTLVEMTLGMKKLKEEMEGVVKELAENNHILERFGSLTMDGGLRNVDCL
As for B1, the Kd in assay [1] was found to be 26 µM; in assay [2], 20 µM; in assay [3], 22.6 µM.

The values above are taken from article PMC5027247.
